# From the supplement of paper PMC10126150
# ± gives the standard deviation of the averaged measurements.
# Tested on: ATP
# Test: switch fluorescence ratio, 500 uM ATP over buffer (Cy3 cluster intensity, sum of 5 cycles each) (fold (ratio)); higher = stronger signal-on switching upon ATP binding; sequences stand for … in TCGTCGGCAGCGTCAGATGTGTATAAGAGACAGTTTTTTTTTTTTTTTTTTTTTTTTT…TC
# Settings: aptamer strand: ATP DNA aptamer (quencher-CACCTGGGGGAGTATTGCGGAGGAAGG + anchor), 100 nM annealed; ATP concentration: 500 uM
# Outline: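 The fluorescence ratio divides summed target-cycle Cy3 intensity by summed buffer-cycle Cy3 intensity for each cluster and is averaged per switch-domain sequence. Cy3-labelled switching-strand clusters on a modified Illumina MiSeq flow-cell were annealed to 100 nM quencher-labelled ATP aptamer, then imaged in selection buffer and again after 15 min with 500 uM ATP at 22 °C. Five such cycles were run, with NaOH stripping and re-annealing between them, and clusters outside 100-1000 RFU were excluded.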
# 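Further: ATP exposure 15 min at 22 °C before imaging.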
row,Sequence,switch fluorescence ratio
1,TGTGGATGGT,0.956 ± 0.019
2,GAATCGGCGT,0.991 ± 0.058
3,CGTCTTATTA,0.9826 ± 0.0028
4,GCAAGCTGGG,1.01 ± 0.014
5,TTTATTAAGT,1.01 ± 0.033
6,GAAGGAAGTT,1.01 ± 0.041
7,TTAAATTACC,1.05 ± 0.032
8,GAATGGGTCG,0.989 ± 0.033
9,GGGGAGGGCA,1.02 ± 0.035
10,AAATCCCGCT,1.0834 ± 0.00016
11,TAATGGTTTT,1.02 ± 0.025
12,GAGTTGTGCC,1.1 ± 0.032
13,AAGGTCATTT,1 ± 0.034
14,GATGGTAGCT,1.04 ± 0.074
15,AGAAAAATTG,0.979 ± 0.067
16,ACATTAGTAG,1.02 ± 0.033
17,ACTTGAGTTT,0.988 ± 0.01
18,CCACGAATT,1.012 ± 0.0096
19,ACTGGTATTA,1.02 ± 0.014
20,AACGGCGGTG,1.01 ± 0.019
21,CGGTTGTAGC,1 ± 0.021
22,GGTGGTGGGT,0.986 ± 0.021
23,GGGTTTTGTA,0.974 ± 0.018
24,ATGTAGGGGA,1.0051 ± 0.001
25,GTTTATTATA,1 ± 0.011

row,Sequence,switch fluorescence ratio
1,ACATTGGGAT,0.998 ± 0.022
2,AAGTGGGGTA,1.03 ± 0.022
3,TCTGAGGTAT,1.03 ± 0.034
4,CCCCGGGGTT,1.88 ± 1.2
5,CGAACGAAAA,0.992 ± 0.04
6,GTATGGGGTT,0.9641 ± 0.0085
7,CGTTCCTCGG,1.77 ± 0.057
8,GATTTTCCTA,0.9608 ± 0.0014
9,AATCCTAAGG,1.02 ± 0.048
10,GGGGAAAGGA,0.9896 ± 0.0085
11,TTTATAAGGC,0.983 ± 0.061
12,TCAAGTGGCC,1.02 ± 0.037
13,CGGTTGTAGT,0.993 ± 0.032
14,AGAAAGAGGG,1.002 ± 0.0013
15,TCATCGGTTC,1 ± 0.052
16,ACAGGACAGC,1.14 ± 0.049
17,ACGAGGGATG,1.01 ± 0.029
18,ATGGTTTACG,1.05 ± 0.077
19,GATGGGATTG,0.966 ± 0.037
20,TTAGTAGGGG,1 ± 0.021
21,GGGAACACGA,1.01 ± 0.018
22,TTTGCCGGAC,1.04 ± 0.062
23,TAGCTTTTAT,0.996 ± 0.032
24,AGTTTTCTTC,0.962 ± 0.041
25,CTCGCTCGTG,1.03 ± 0.016

row,Sequence,switch fluorescence ratio
1,TCAGAGGGGG,0.992 ± 0.036
2,TATGCCTTTG,0.987 ± 0.033
3,TAAGGGGTTT,1.03 ± 0.058
4,TCGTGAGTGG,0.975 ± 0.021
5,TCCCTACTGT,1.02 ± 0.017
6,TAGAATATAT,1.78 ± 1
7,GCATGGAGTA,1.02 ± 0.029
8,ACCGGCACGG,0.9679 ± 0.0037
9,CCCTTGGTTA,1.03 ± 0.032
10,GATTCAGGAA,1 ± 0.047
11,GTGGCGGGGG,1.01 ± 0.026
12,GTGGTCGATG,0.953 ± 0.043
13,GAGGGTTGCT,1.01 ± 0.036
14,ATATGATGTG,1.01 ± 0.03
15,GTTTGCAGGA,0.995 ± 0.027
16,AATACAGCAT,1.03 ± 0.014
17,GGTTATCTTT,0.982 ± 0.047
18,CCTGTTTGTA,1.01 ± 0.066
19,ATGGATGCGT,0.967 ± 0.015
20,ATGCATTAAG,0.992 ± 0.051
21,CGGGTGAGTA,1.05 ± 0.08
22,AAATATGGGC,0.961 ± 0.022
23,GAAGAAAACA,0.955 ± 0.089
24,TTTTAAGGCT,0.982 ± 0.024
25,CGGTCGGAGG,0.974 ± 0.023

row,Sequence,switch fluorescence ratio
1,ATCCTCGTAA,2.44 ± 0.32
2,TGTTTGAATG,0.9585 ± 0.0029
3,CACGGGTTGC,1.02 ± 0.031
4,TTTGTAGACG,1.04 ± 0.062
5,TGTGGGGGTG,1.01 ± 0.033
6,AAGGGAAAAA,1.03 ± 0.092
7,AGCGTTGGTG,1.03 ± 0.031
8,AAAATCGGGT,1.03 ± 0.025
9,GACGTTGAGG,0.983 ± 0.023
10,AGAGTCGTCA,0.965 ± 0.0068
11,TCCGAGATCT,1.08 ± 0.053
12,CGATACGATG,0.995 ± 0.011
13,TGCGGGGGAT,1.02 ± 0.033
14,TAGGATTGTG,0.9991 ± 0.0081
15,ACGGTGATCA,1.03 ± 0.038
16,AATAGTTTAG,0.9918 ± 0.0035
17,AGGAAAGGCG,1.09 ± 0.015
18,ATGGGCTTCT,1.018 ± 0.0091
19,TTTAGAAGGT,0.995 ± 0.026
20,TTTTCGGGCG,0.944 ± 0.017
21,GTTAGTAGAT,1.01 ± 0.019
22,TTTGTGATGT,1.02 ± 0.066
23,CCTTTTGTAC,1.386 ± 0.011
24,TGGGGGAGG,0.9974 ± 0.0058
25,AATTTTGGGT,1 ± 0.041

row,Sequence,switch fluorescence ratio
1,CTTGTAATGT,1.02 ± 0.011
2,CATATACGAG,1.11 ± 0.015
3,TATTTTAAAA,0.986 ± 0.022
4,AGGGCGCGGA,1.05 ± 0.016
5,GGGGTCCTTT,0.9886 ± 0.0044
6,TCTAAGGGA,1.01 ± 0.018
7,TGAATTTTAT,0.9885 ± 0.0073
8,TTGAATTTTC,1.02 ± 0.061
9,GTTAGTGGGC,0.971 ± 0.037
10,ATGGAAAATG,1.04 ± 0.037
11,TCATTGTGCT,0.975 ± 0.015
12,AGGTCTAGTT,0.9995 ± 0.0089
13,GAGTCTTTTG,1.013 ± 0.0096
14,GAACAATGGG,0.977 ± 0.03
15,TTGAGATTGG,0.998 ± 0.03
16,GGTTTTAGAT,0.9977 ± 0.0072
17,ACGTTTTAA,0.9999 ± 0.0084
18,AATTGGATGG,1.02 ± 0.047
19,CGTTTGACTT,0.9947 ± 0.0066
20,TTGTGTCGCT,1.0031 ± 0.0004
21,GGGTTGCATG,0.976 ± 0.016
22,TGTGGTATGC,1.01 ± 0.057
23,AGTTTGAAAT,1.01 ± 0.03
24,ATAGGATTTT,0.985 ± 0.034
25,AAATTACAGT,0.99493 ± 0.00079

row,Sequence,switch fluorescence ratio
1,ATTTAGGACT,0.978 ± 0.027
2,AAATAATTGG,1.09 ± 0.013
3,TGACTTAACT,1.09 ± 0.034
4,ATTGATGGCC,0.963 ± 0.032
5,TATTTGGCAT,1.036 ± 0.0029
6,TTTTAATGGA,1.03 ± 0.029
7,TTAATGCCGT,1.05 ± 0.076
8,AAAACGTTAC,1.68 ± 0.02
9,TGGTCGGTCT,1.07 ± 0.074
10,GGCTTGAAGC,0.986 ± 0.018
11,GGGGTTAGGG,1 ± 0.032
12,TGTGGCACAT,1.005 ± 0.0065
13,TCTCCAGGGG,2.3 ± 2.1
14,CATTAAGGTT,0.996 ± 0.01
15,GCAACCGAGG,1.04 ± 0.064
16,AATGCCTGGT,0.984 ± 0.022
17,GCGGGAATGA,1 ± 0.045
18,GGGGAGTGAC,1.025 ± 0.0086
19,GATGAGCCGG,1 ± 0.027
20,ACCTGCGGGG,1.01 ± 0.023
21,ATGTATAGCC,0.995 ± 0.036
22,GGAAACCATT,1.03 ± 0.024
23,TCATGGCACC,1.05 ± 0.025
24,TTTGTGGCAG,0.991 ± 0.039
25,ATACTATGGT,0.989 ± 0.038

row,Sequence,switch fluorescence ratio
1,ATCATTGAA,0.9864 ± 0.0087
2,CGAGAGCCAC,1.13 ± 0.047
3,GGGGGAGGAT,1.03 ± 0.057
4,TTAGGAAA,0.984 ± 0.044
5,AGCTGCACAT,1.048 ± 0.0022
6,AGTTGGGTGG,1.04 ± 0.026
7,ACGTTGCACA,1.18 ± 0.016
8,TATCAGGGGG,0.988 ± 0.026
9,TTTCTTCAGC,1.21 ± 0.19
10,TTGTTTTGAG,0.994 ± 0.013
11,GTAATAGTAT,1.006 ± 0.0061
12,GTAATTTTGG,0.983 ± 0.037
13,GTTTCATATG,1.03 ± 0.047
14,CGGTTAAAAA,0.982 ± 0.066
15,AAAATTATAT,1.02 ± 0.035
16,GGAGAGGGGA,0.982 ± 0.014
17,TAGTTATTTA,0.99 ± 0.033
18,TTTTGAGAGG,0.983 ± 0.036
19,CTTAGGGAGT,1.006 ± 0.0028
20,CGAATTTTTG,0.982 ± 0.018
21,AGCATGGTAG,1.02 ± 0.031
22,GTTTTGTGGA,1.01 ± 0.007
23,TAATGGGGAC,0.967 ± 0.03
24,GGTGAAATGT,0.9561 ± 0.0059
25,CTCTGAGGTT,1 ± 0.035

row,Sequence,switch fluorescence ratio
1,TCTAATTACA,1.04 ± 0.073
2,TAAAGTAAAT,0.9668 ± 0.0028
3,AAGCCTGGTG,1.6 ± 0.063
4,CAAAGTAGGC,0.958 ± 0.018
5,GGGGTAGAGA,0.99 ± 0.015
6,CCAGGGGGAC,1.11 ± 0.018
7,TGGAAAGGGG,1.01 ± 0.014
8,GTGGCTTTTT,1 ± 0.037
9,ACAGGCTCCG,1.05 ± 0.038
10,TGGGAGTAAA,1.02 ± 0.027
11,ACGAACGGGG,1.27 ± 0.1
12,TTATTTGTTT,0.977 ± 0.018
13,AAATGAAAGT,0.995 ± 0.015
14,CGAGGGTCTC,1.01 ± 0.029
15,GTGAATCGGG,0.973 ± 0.032
16,AGTTTAAAAG,1.01 ± 0.024
17,AGAAAGGATT,1.01 ± 0.021
18,TGGGGGACGC,1.08 ± 0.045
19,AAAAATTCAG,0.987 ± 0.045
20,ATGGAGGCAA,1.37 ± 0.12
21,AGACGGCAGC,0.992 ± 0.035
22,ATTAAGTTTT,1 ± 0.028
23,CCGCTGTTTT,1.16 ± 0.23
24,TGTGGCGTTT,1.04 ± 0.059
25,TCATGAGAGT,0.998 ± 0.011
